Read-outs that look alike come from different tables or passages of the source.
What was measured:
CATPO T188F variant = CATPO T188F variant (Scytalidium thermophilum (Humicola insolens), UniProt M4GGR5, T207F); test: biochemical; conditions: catechol oxidation by T188F; read-out: K i
CATPO = CATPO (Scytalidium thermophilum (Humicola insolens), UniProt M4GGR5); test: Inhibition of catechol oxidation; type: biochemical
CATPO T188A variant = CATPO T188A variant (Scytalidium thermophilum (Humicola insolens), UniProt M4GGR5, T207A); test: biochemical; conditions: catechol oxidation by T188A; read-out: K i
mammalian catalase = target: mammalian catalase; set-up: method as in Vetrano et al., 2005; conditions: ref Vetrano et al., 2005; cited from earlier work
CATPO E484I variant = CATPO E484I variant (Scytalidium thermophilum (Humicola insolens), UniProt M4GGR5, E503I); test: biochemical; conditions: catechol oxidation by E484I; read-out: K i
CATPO T188I variant = CATPO T188I variant (Scytalidium thermophilum (Humicola insolens), UniProt M4GGR5, T207I); test: biochemical; conditions: catechol oxidation by T188I; read-out: K i
CATPO E484D variant = CATPO E484D variant (Scytalidium thermophilum (Humicola insolens), UniProt M4GGR5, E503D); test: biochemical; conditions: catechol oxidation by E484D; read-out: K i
CATPO T188D variant = CATPO T188D variant (Scytalidium thermophilum (Humicola insolens), UniProt M4GGR5, T207D); test: biochemical; conditions: catechol oxidation by T188D; read-out: K i
CATPO E484A variant = CATPO E484A variant (Scytalidium thermophilum (Humicola insolens), UniProt M4GGR5, E503A); test: biochemical; conditions: catechol oxidation by E484A; read-out: K i
CATPO variants = test: Effects on the phenol oxidase activity of the CATPO variants taken together; type: biochemical, Scytalidium thermophilum; conditions: hydrogen peroxide 1–100 mM or ethanol 2–200 mM, before or after the addition of catechol
Protocol: (§1) All inhibition assays were performed in triplicate.

[1] = substrate: Cc1ccc(O)c(O)c1; test: Spectrophotometric phenol oxidase assay without H2O2 at pH 7.0 and 60 °C, initial rates fitted to the Michaelis-Menten equation.; type: biochemical
Protocol: as §1

[2] = substrate: Oc1ccc(O)cc1; test: as above; type: biochemical
Protocol: as §1

[3] = substrate: CC(C)(C)c1ccc(O)c(O)c1; test: as above; type: biochemical
Protocol: as §1

[4] = substrate: CCn1c(=NN=c2sc3cc(S(=O)(=O)O)ccc3n2CC)sc2cc(S(=O)(=O)O)ccc21; test: purified protein, by the assay type; conditions: 60.0 °C
[5] = substrate: Oc1ccccc1O; test: Phenol oxidase activity (H2O2-independent) measured spectrophotometrically by product formation at pH 7.0, 60 C, Michaelis-Menten fit.; type: biochemical
Protocol: as §1

[6] = substrate: Oc1ccccc1O; test: Spectrophotometric catechol oxidation assay at 420 nm, pH 7.0 and 60 °C; values not normalized to heme content.; type: biochemical
Protocol: as §1
Tabl e S1 Comparison of gate residues at the entrance of the main channel among large subunit […]
PDB ID e Organism Gate residues
Tabl e S2 K i neti c const ant s
**Catalase activity **Phenol oxidase activity
*KM-app kcat kcat/*KM-app KM kcat kcat/KM
(mM) (s-1) (s-1 M-1) (mM) (s-1) (s-1 M-1) Rz Heme
RZ = A407/A280. T he values were normalized to heme content in each CAT PO variant. T he values in parentheses are for unnor malized val ues a nd shaded in gre y for ease of vie wi ng. *KM-app is the H2O2 concentratio n at Vmax/2 […]
Michaelis–Menten kinetics (Switala & Loewen, 2002).
**One unit of catalase is defined as the amo unt that catalyses the degradation o f 1 µmol H2O2 in 1 min. One unit of phenol oxidase corresponds to the enzyme catalysing the formation of 1 nmol of product per minute.

[7] = substrate: Oc1ccccc1O; test: Phenol oxidase activity (H2O2-independent) measured spectrophotometrically by product formation at pH 7.0, 60 C, Michaelis-Menten fit.; type: biochemical; remark: listed apart in the source

[F-].[Na+] [NaF, sodium fluoride]
Ki (CATPO T188F variant): 6.4 ± 0.4 mM | inhibition type (CATPO; catechol oxidase activity of wild-type CATPO, Lineweaver–Burk): uncompetitive | Ki (CATPO; catechol oxidation by CATPO, catechol 1 to 100 mM, read-out: K i): 0.67 ± 0.1 mM | Ki (CATPO T188A variant): 0.65 ± 0.1 mM | Ki (mammalian catalase): 0.75 mM | inhibition type (mammalian catalase): uncompetitive | Ki (CATPO E484I variant): 5.5 ± 0.2 mM | Ki (CATPO T188I variant): 5.8 ± 0.4 mM | Ki (CATPO E484D variant): 0.66 ± 0.1 mM | Ki (CATPO T188D variant): 5 ± 0.5 mM | Ki (CATPO E484A variant): 7.8 ± 1.1 mM

CCO [ethanol]
effect of addition on phenol oxidase activity (CATPO variants): not affected

OO [hydrogen peroxide]
effect of addition on phenol oxidase activity (CATPO variants): not affected

B1: T188I (Mycothermus thermophilus; T207I) (protein)
chain: TCPFADPAALYSRQDTTSGQSPLAAYEVDDSTGYLTSDVGGPIQDQTSLKAGIRGPTLLEDFMFRQKIQHFDHERVPERAVHARGAGAHGTFTSYADWSNITAASFLNATGKQTPVFVRFSTVAGSRGSADTARDVHGFATRFYTDEGNFDIVGNNIPVFFIQDAIQFPDLIHSVKPRPDNEIPQAAIAHDSAWDFFSQQPSTMHTLFWAMSGHGIPRSYRHMDGFGVHTFRFVKDDGSSKLIKWHFKSRQGKASLVWEEAQVLSGKNADFHRQDLWDAIESGNGPEWDVCVQIVDESQAQAFGFDLLDPTKIIPEEYAPLTKLGLLKLDRNPTNYFAETEQVMFQPGHIVRGIDFTEDPLLQGRLFSYLDTQLNRNGGPNFEQLPINMPRVPIHNNNRDGAGQMFIHRNKYPYTPNTLNSGYPRQANQNAGRGFFTAPGRTASGALVREVSPTFNDHWSQPRLFFNSLTPVEQQFLVNAMRFEISLVKSEEVKKNVLTQLNRVSHDVAVRVAAAIGLGAPDADDTYYHNNKTAGVSIVGSGPLPTIKTLRVGILATTSESSALDQAAQLRTRLEKDGLVVTVVAETLREGVDQTYSTADATGFDGVVVVDGAAALFASTASSPLFPTGRPLQIFVDAYRWGKPVGVCGGKSSEVLDAADVPEDGDGVYSEESVDMFVEEFEKGLATFRFTDRFALDS
notes: recombinant, pET-28-TEV-CATPO; contains heme b; Rz 0.4
Km [1]: 34 ± 1.2 mM | Km [2]: 44 ± 0.4 mM | Km [3]: 35 ± 0.5 mM | Km [4]: 48 ± 0.7 mM | Km [5]: 31 ± 0.5 mM | kcat [5]: 28400 ± 1100 s⁻¹ | kcat/Km [5]: 920000 ± 4500 M⁻¹ s⁻¹ | Km [6]: 40 mM

B2: CATPO (Mycothermus thermophilus) (protein)
chain: TCPFADPAALYSRQDTTSGQSPLAAYEVDDSTGYLTSDVGGPIQDQTSLKAGIRGPTLLEDFMFRQKIQHFDHERVPERAVHARGAGAHGTFTSYADWSNITAASFLNATGKQTPVFVRFSTVAGSRGSADTARDVHGFATRFYTDEGNFDIVGNNIPVFFIQDAIQFPDLIHSVKPRPDNEIPQAATAHDSAWDFFSQQPSTMHTLFWAMSGHGIPRSYRHMDGFGVHTFRFVKDDGSSKLIKWHFKSRQGKASLVWEEAQVLSGKNADFHRQDLWDAIESGNGPEWDVCVQIVDESQAQAFGFDLLDPTKIIPEEYAPLTKLGLLKLDRNPTNYFAETEQVMFQPGHIVRGIDFTEDPLLQGRLFSYLDTQLNRNGGPNFEQLPINMPRVPIHNNNRDGAGQMFIHRNKYPYTPNTLNSGYPRQANQNAGRGFFTAPGRTASGALVREVSPTFNDHWSQPRLFFNSLTPVEQQFLVNAMRFEISLVKSEEVKKNVLTQLNRVSHDVAVRVAAAIGLGAPDADDTYYHNNKTAGVSIVGSGPLPTIKTLRVGILATTSESSALDQAAQLRTRLEKDGLVVTVVAETLREGVDQTYSTADATGFDGVVVVDGAAALFASTASSPLFPTGRPLQIFVDAYRWGKPVGVCGGKSSEVLDAADVPEDGDGVYSEESVDMFVEEFEKGLATFRFTDRFALDS
notes: recombinant, pET-28-TEV-CATPO; contains heme d; Rz 0.8
Km [1]: 35 ± 0.3 mM | Km [2]: 45 ± 1.5 mM | Km [3]: 36 ± 1.0 mM | Km [7]: 33 ± 0.5 mM | kcat [7]: 7300 ± 365 s⁻¹ | kcat/Km [7]: 220000 ± 13000 M⁻¹ s⁻¹ | Km [4]: 50 ± 1.5 mM

From publication PMC10836395, “Investigation of how gate residues in the main channel affect the catalytic activity of Scytalidium thermophilum catalase” (Acta Crystallographica. Section D, Structural Biology, 2024)
